Laboratory results as given in PMC2115445.
“And” between values parts separate entries of the source, which are not always exact repeats. Equal entries are not always repeated. Values belong to the substance of their own block, whether it stands above or below them.

Experiments:
[1] = biological target: human erythrocyte ankyrin (human) (UniProt P16157); assay: co-sedimentation
[2] = biological target: human erythrocyte ankyrin (human) (UniProt P16157); assay: pull-down
[3] = biological target: Na,K-ATPase (alpha-beta heterodimer) of dog kidney membranes (dog (endogenous in canine kidney)) (UniProt P50997); assay: co-sedimentation

human erythrocyte ankyrin (human), sequence (P16157 whole entry): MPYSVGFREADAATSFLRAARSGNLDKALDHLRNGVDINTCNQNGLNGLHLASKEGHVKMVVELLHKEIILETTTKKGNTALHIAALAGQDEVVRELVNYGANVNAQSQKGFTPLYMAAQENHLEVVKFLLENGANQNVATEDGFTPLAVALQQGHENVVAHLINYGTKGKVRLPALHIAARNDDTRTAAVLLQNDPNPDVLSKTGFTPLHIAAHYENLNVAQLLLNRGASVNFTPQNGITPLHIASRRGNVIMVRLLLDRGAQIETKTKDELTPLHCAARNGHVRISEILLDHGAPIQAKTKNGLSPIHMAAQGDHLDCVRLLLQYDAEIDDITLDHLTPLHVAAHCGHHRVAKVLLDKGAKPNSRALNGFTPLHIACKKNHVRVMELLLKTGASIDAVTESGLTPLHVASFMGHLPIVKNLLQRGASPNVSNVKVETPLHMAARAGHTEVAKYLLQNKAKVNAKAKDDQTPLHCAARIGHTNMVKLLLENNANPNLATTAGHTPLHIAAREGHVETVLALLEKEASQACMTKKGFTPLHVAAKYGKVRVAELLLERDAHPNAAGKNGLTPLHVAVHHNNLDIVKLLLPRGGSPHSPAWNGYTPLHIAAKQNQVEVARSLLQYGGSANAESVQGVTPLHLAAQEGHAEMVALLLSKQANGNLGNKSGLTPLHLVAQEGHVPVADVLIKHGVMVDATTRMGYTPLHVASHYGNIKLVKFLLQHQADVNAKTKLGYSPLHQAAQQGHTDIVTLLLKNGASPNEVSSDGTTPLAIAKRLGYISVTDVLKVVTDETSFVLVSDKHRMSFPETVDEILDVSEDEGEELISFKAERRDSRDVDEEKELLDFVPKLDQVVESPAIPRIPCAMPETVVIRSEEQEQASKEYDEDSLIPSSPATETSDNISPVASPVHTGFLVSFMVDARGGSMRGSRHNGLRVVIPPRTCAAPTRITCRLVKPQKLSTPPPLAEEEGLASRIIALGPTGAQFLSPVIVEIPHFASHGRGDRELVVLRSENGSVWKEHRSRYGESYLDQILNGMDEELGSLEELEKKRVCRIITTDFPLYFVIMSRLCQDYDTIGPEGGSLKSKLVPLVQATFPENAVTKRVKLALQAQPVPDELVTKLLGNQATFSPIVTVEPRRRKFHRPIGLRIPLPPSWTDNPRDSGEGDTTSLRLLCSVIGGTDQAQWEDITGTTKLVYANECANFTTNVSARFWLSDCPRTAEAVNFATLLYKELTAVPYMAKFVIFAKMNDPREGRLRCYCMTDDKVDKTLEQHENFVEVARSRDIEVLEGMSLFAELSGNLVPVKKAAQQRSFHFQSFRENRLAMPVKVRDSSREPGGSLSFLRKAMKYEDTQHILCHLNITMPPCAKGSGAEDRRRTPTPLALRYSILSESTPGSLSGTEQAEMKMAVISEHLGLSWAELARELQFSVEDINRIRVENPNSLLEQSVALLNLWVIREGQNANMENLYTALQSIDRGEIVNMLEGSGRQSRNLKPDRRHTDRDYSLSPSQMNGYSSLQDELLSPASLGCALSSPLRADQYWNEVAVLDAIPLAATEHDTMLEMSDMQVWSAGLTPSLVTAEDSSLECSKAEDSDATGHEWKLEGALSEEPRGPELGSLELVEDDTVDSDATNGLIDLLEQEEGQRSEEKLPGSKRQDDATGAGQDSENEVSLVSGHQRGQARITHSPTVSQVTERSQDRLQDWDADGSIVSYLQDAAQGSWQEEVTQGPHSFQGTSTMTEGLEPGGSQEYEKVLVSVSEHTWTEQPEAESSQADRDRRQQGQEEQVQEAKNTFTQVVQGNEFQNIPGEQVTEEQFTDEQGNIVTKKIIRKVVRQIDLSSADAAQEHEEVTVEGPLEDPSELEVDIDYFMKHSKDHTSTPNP

Ki [1]: 3.5 µM
Substance: 43-kD cytoplasmic domain of human erythrocyte band 3 (domain or fragment)

fold bound to immobilized ankyrin against immobilized BSA [2]: 17 fold
Substance: Na,K-ATPase (alpha-beta heterodimer) of dog kidney membranes (from UniProt P50997 1-1021; P06583 1-303) (complex)

Kd [3]: 2590 nM and 2570 nM
stoichiometry N (molecules of Na,K-ATPase per ankyrin) [3]: 3.5 to 4.8
stoichiometry N ([3]; scale: molecules of Na,K-ATPase alpha-beta heterodimer per ankyrin): 2.93 and 5.05
Substance: human erythrocyte ankyrin (from UniProt P16157 1-1881) (natural protein)
